Experimental data taken from PMC11039987.
Read-outs that look alike come from different tables or passages of the source.

Legend:
Assay in all cases: fluorescence anisotropy
RecBCD [1] = target: T1, RecBCD (prokaryote (species  in the …, UniProt P08394;P07648;P04993 1-1180;1-1122;1-608))
RecBCD [2] = target: T1, RecBCD; remark: listed apart in the source
RecBCD [3] = target: T1, RecBCD; remark: listed apart in the source

T1 sequence (P08394 whole entry, chain 1 of 3): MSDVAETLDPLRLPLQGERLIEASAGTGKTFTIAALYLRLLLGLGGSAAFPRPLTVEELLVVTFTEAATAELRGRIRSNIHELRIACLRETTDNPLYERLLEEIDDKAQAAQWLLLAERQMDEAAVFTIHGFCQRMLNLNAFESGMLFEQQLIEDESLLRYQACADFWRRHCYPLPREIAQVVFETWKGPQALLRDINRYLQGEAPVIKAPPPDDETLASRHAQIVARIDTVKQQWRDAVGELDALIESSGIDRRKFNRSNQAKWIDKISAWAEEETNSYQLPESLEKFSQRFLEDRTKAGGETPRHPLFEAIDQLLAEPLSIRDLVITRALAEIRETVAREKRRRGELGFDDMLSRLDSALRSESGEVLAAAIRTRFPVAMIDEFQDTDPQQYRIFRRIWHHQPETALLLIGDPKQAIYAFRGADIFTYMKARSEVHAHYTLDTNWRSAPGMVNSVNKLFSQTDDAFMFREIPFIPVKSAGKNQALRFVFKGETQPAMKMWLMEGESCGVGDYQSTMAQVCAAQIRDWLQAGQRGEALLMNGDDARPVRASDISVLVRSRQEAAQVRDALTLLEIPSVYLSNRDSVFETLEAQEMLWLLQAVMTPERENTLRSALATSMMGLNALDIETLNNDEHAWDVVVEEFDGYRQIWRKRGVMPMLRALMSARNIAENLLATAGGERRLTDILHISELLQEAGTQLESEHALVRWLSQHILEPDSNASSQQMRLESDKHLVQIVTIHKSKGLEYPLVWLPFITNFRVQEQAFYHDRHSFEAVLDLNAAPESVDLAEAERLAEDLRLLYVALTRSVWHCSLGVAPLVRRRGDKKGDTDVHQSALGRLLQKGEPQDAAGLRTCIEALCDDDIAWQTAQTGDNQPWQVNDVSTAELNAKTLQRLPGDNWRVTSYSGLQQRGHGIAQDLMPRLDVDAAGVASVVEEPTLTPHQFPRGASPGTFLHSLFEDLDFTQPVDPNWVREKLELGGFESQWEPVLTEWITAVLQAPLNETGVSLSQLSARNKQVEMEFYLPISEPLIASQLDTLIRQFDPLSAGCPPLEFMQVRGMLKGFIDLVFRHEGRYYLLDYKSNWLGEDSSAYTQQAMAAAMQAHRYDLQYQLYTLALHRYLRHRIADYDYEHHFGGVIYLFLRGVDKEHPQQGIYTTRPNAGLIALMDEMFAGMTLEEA
T1 sequence (P07648 whole entry, chain 2 of 3): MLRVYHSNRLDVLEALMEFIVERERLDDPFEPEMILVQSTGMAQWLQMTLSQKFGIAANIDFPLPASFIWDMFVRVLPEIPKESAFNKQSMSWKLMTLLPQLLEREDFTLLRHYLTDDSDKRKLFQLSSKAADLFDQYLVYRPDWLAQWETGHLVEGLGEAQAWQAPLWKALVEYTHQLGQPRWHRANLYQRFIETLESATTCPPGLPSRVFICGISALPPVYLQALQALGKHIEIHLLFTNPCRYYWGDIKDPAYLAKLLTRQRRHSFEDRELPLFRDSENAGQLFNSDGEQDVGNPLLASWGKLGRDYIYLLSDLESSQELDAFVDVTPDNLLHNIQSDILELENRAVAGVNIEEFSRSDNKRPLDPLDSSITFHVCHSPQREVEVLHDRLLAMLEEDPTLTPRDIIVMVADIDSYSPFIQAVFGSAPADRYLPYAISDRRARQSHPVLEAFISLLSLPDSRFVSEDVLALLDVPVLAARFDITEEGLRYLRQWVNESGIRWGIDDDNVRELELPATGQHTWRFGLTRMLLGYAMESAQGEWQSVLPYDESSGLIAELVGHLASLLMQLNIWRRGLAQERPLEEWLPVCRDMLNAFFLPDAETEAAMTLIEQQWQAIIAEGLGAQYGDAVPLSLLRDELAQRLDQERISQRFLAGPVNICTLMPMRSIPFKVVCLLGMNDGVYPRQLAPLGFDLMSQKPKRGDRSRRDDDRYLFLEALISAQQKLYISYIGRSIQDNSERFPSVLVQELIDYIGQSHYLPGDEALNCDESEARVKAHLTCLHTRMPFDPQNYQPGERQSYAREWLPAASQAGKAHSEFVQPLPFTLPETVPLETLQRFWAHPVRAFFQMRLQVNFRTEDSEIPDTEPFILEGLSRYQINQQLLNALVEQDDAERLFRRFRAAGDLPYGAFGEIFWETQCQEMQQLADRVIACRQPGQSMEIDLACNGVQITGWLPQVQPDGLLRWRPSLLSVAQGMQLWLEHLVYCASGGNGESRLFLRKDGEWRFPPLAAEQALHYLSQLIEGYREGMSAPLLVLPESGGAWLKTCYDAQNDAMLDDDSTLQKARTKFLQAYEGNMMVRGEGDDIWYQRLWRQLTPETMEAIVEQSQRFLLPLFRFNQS
T1 sequence (P04993 whole entry, chain 3 of 3): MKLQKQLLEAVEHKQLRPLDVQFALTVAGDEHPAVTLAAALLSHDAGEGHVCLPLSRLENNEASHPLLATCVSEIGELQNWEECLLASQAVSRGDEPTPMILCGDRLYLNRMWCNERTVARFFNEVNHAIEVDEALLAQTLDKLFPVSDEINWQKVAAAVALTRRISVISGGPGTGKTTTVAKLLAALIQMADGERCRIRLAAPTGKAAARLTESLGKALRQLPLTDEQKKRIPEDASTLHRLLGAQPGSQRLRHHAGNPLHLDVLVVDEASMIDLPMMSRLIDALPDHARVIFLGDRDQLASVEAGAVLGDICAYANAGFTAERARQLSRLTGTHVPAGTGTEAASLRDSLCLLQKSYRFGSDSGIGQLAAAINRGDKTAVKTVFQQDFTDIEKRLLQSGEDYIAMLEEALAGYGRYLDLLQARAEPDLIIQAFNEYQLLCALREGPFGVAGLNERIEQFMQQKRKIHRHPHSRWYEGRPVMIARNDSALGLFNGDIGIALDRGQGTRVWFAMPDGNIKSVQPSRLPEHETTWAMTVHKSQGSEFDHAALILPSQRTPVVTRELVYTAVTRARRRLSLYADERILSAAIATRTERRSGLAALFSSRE

GATGTGACTCGTTACCTGAGTTTTTACTCAGGTAACGAGTCACATC (structured_DNA) [hpDNA-F]: binds (RecBCD [1]).

AGAGAGAGAGAGAGAGAGAGAGAG (ssDNA) [ssDNA-F]: binds (RecBCD [2]).

B1: 3ohDNA-F (structured_DNA)
DNA: CATGTGACTCGTTACCTGAGTTTTTACTCAGGTAACGAGTCACATGATATATATAT
Binder B1 has a Kd (RecBCD [3]) of 166 ± 41 nM.
